The data set “SEC” deals with the molecule itself. Nature of the data set: SEC.
The next data set has as its target EccA1 ATPase, wild type (M. tuberculosis H37Rv, UniProt P9WPH9 1-573). Nature of the data set: SPR. (SPR reads the build-up and loss of mass on a sensor chip optically.)

The values that follow come from article doi:10.1101/2021.09.24.461649 (bioRxiv, 2021).

Sequence of EccA1 ATPase, wild type (P9WPH9 whole entry): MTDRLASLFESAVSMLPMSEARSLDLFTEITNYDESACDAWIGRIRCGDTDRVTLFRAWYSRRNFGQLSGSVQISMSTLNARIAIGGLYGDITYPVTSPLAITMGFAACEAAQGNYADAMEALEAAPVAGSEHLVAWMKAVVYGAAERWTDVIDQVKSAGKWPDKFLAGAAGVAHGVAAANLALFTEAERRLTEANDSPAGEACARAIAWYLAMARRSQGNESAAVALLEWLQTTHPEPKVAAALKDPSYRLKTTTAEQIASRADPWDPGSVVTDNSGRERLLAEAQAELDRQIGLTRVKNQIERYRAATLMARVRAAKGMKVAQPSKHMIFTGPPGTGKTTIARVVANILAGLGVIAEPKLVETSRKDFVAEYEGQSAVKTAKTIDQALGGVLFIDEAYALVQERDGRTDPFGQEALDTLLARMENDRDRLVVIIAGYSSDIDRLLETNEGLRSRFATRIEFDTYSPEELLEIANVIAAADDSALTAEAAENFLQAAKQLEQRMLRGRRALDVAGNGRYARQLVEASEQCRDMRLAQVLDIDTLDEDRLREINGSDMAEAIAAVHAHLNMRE

B1: EspC-Δ5 truncated mutant (domain or fragment)
chain: MTENLTVQPERLGVLASHHDNAAVDASSGVEAAAGLGESVAITHGPYCSQFNDTLNVYLTAHNALGSSLHTAGVDLAKSLRIAAKIYSEADEAWRKAID
As to B1, the “stoichiometry N” value in the data set “SEC” is 6. This molecule also had a Kd in the data set with EccA1 ATPase, wild type of around 6.7 µM.

B2: EspC (ESX-1 secreted protein C), wild type (natural protein)
chain: MMTENLTVQPERLGVLASHHDNAAVDASSGVEAAAGLGESVAITHGPYCSQFNDTLNVYLTAHNALGSSLHTAGVDLAKSLRIAAKIYSEADEAWRKAIDGLFT
For B2, the Kd with EccA1 ATPase, wild type was around 0.14 µM.

B3: EspC-Δ10 truncated mutant (domain or fragment)
chain: MMTENLTVQPERLGVLASHHDNAAVDASSGVEAAAGLGESVAITHGPYCSQFNDTLNVYLTAHNALGSSLHTAGVDLAKSLRIAAKIYSEADEA
Take B3: the “stoichiometry N” value in “SEC” was 6. In addition, the Kd in the data set with EccA1 ATPase, wild type was around 8.1 µM.

B4: EspC-Δ20 truncated mutant (domain or fragment)
chain: MMTENLTVQPERLGVLASHHDNAAVDASSGVEAAAGLGESVAITHGPYCSQFNDTLNVYLTAHNALGSSLHTAGVDLAKSLRIA
As to B4, the “stoichiometry N” value in the data set “SEC” was 6.

One may read the stoichiometry N as a count of units in the complex or per binding partner. A word on the Kd: it is the equilibrium constant for the complex coming apart. High values mean lower affinity, low ones higher affinity.
